Experiment [1] has as its target T1, human MET extracellular domain (ECD) (human, UniProt P08581 25-932).
T1 construct: range 1-932; recombinant ECD; also called hMET; human MET ECD
The experiment can be described thus: ELISA, periplasmic Fab on MET ECD. Here is the method:
Fab-expressing phages from the libraries described above were produced according to standard phage display protocols. For selection, phages were first adsorbed to immobilized recombinant human MET ECD, washed, and then eluted using trypsin. After two cycles of selection with human MET ECD, two other cycles were performed in the same fashion using mouse MET ECD. In parallel, we also selected phages alternating a human MET ECD cycle with a mouse MET ECD cycle, for a total of four cycles. Phages selected by the two approaches were pooled together and then used to infect TG1 E. coli. Individual colonies were isolated and secretion of Fabs was induced using IPTG (Fermentas). The Fab-containing periplasmic fraction of bacteria was collected and tested for its ability to bind human and mouse MET ECD by Surface Plasmon Resonance (SPR). Human or mouse MET ECD was immobilized on a CM-5 chip using amine coupling in sodium acetate buffer (GE Healthcare). The Fab-containing periplasmic extracts were loaded into a BIACORE 3000 apparatus (GE Healthcare) with a flow rate of 30 μl/min. The Fab off-rates (koff) were measured over a two minute period. Binding of Fabs to human and mouse MET was further characterized by ELISA using MET ECD in solid phase and periplasmic crude extract in solution.
TABLE 7 Fabs binding to both human MET (hMET) and mouse MET (mMET). Fabs are grouped in families based on their VH CDR3 sequence. Binding of Fabs to human and mouse MET ECD was determined by Surface Plasmon Resonance (SPR) and by ELISA. SPR values represent the koff (s⁻¹). ELISA values represent the Optical Density (OD) at 450 nm (AU, arbitrary units). Both SPR and ELISA were performed using crude periplasmic extracts. Fab concentration in the extract was not determined. Values are the mean of three independent measurements.

Experiment [2] has as its target T2, native mouse MET on living mouse cells (mouse, UniProt P16056 25-1379). As to the kind of experiment: cell-based or functional assay.
Experiment [3] concerns the target T2, native mouse MET on living mouse cells. As to the kind of experiment: cell-based or functional assay. This is another data set of the same source.

We go through 2 molecules from patent US20210024639A1 (AGOMAB THERAPEUTICS, published 2021).

T1 sequence (P08581 25-932 limits assumed, form in doubt): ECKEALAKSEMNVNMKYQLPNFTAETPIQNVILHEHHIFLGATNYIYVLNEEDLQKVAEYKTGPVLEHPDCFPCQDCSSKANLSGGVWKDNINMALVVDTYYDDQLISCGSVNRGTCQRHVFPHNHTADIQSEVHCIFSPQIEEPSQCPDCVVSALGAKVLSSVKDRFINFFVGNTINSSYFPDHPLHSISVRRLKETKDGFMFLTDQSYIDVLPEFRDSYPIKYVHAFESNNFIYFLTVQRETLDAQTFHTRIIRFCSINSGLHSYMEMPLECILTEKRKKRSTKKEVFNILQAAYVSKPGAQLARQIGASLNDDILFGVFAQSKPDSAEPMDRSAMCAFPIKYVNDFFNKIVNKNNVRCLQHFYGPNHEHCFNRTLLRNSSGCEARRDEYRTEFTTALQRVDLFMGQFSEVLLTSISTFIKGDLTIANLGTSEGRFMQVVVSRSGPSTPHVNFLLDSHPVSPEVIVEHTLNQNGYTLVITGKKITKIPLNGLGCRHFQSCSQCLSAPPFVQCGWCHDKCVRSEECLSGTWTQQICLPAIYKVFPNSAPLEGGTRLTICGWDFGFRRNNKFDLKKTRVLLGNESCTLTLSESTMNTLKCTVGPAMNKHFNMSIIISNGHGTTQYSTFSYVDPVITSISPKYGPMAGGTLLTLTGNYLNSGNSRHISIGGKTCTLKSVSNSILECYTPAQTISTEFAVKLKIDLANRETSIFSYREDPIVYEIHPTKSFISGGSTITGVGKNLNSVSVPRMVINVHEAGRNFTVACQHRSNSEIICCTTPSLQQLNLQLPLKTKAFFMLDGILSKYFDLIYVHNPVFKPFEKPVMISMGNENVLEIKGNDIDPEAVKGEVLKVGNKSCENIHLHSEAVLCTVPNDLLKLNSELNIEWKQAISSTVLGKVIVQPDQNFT

B1: Fab 71G12 (Fab, V domains shown)
VH: QVQLQESGGDLVQPGGSLRVSCVVSGFTFSRYYMSWVRQAPGKGLEWVSSIDSYGYSTYYTDSVKGRFTISRDNAKNTLYLQMNSLKPEDTALYYCARAKTTWSYDYWGQGTQVTVSS
VL: EIVLTQSPSSVTASVGGKVTINCKSSQSVFIASNQKTYLNWYQQRPGQSPRLVISYASTRESGIPDRFSGSGSTTDFTLTISSVQPEDAAVYYCQQAYSHPTFGQGTKVELK
notes: llama Fab (VH-CH1, kappa VL-CL) with MYC flag, crude periplasmic extract
With B1, in experiment [1], the “ELISA OD450” value worked out at 0.45 AU.

B2: recombinant mouse HGF (R&D Systems) (ligand, UniProt Q08048 33-728, looked up)
chain: QKKRRNTLHEFKKSAKTTLTKEDPLLKIKTKKVNSADECANRCIRNRGFTFTCKAFVFDKSRKRCYWYPFNSMSSGVKKGFGHEFDLYENKDYIRNCIIGKGGSYKGTVSITKSGIKCQPWNSMIPHEHSFLPSSYRGKDLQENYCRNPRGEEGGPWCFTSNPEVRYEVCDIPQCSEVECMTCNGESYRGPMDHTESGKTCQRWDQQTPHRHKFLPERYPDKGFDDNYCRNPDGKPRPWCYTLDPDTPWEYCAIKTCAHSAVNETDVPMETTECIQGQGEGYRGTSNTIWNGIPCQRWDSQYPHKHDITPENFKCKDLRENYCRNPDGAESPWCFTTDPNIRVGYCSQIPKCDVSSGQDCYRGNGKNYMGNLSKTRSGLTCSMWDKNMEDLHRHIFWEPDASKLNKNYCRNPDDDAHGPWCYTGNPLIPWDYCPISRCEGDTTPTIVNLDHPVISCAKTKQLRVVNGIPTQTTVGWMVSLKYRNKHICGGSLIKESWVLTARQCFPARNKDLKDYEAWLGIHDVHERGEEKRKQILNISQLVYGPEGSDLVLLKLARPAILDNFVSTIDLPSYGCTIPEKTTCSIYGWGYTGLINADGLLRVAHLYIMGNEKCSQHHQGKVTLNESELCAGAEKIGSGPCEGDYGGPLICEQHKMRMVLGVIVPGRGCAIPNRPGIFVRVAYYAKWIHKVILTYKL
modifications: biotinylated at the N-terminus using NHS-LC-biotin in the competition ELISA only
In the case of B2, in experiment [2], the “cell scattering score, MLP29, 0.001 nM” value was determined as 0 score 0-4; the “cell scattering score, MLP29, 0.004 nM” value amounted to 1 score 0-4; the “cell scattering score, MLP29, 0.012 nM” value is 2 score 0-4; the “cell scattering score, MLP29, 0.037 nM” value turned out to be 3 score 0-4. In experiment [2], the “cell scattering score, MLP29, 0.111 nM” value came out at 4 score 0-4; the “cell scattering score, MLP29, 0.333 nM” value was found to be 4 score 0-4; the “cell scattering score, MLP29, 1.000 nM” value was 4 score 0-4; the “cell scattering score, MLP29, 3.000 nM” value turned out to be 4 score 0-4. The “cell scattering score, MLP29, 9.000 nM” value in experiment [2] worked out at 4 score 0-4. Moreover, in experiment [3], the “protection from staurosporine, viability EC50, MLP29” value worked out at 5.35 nM and the “protection from staurosporine, viability EMAX, MLP29” value is 58.6%.
